US4286063A, “Method for producing thrombolytic preparation” (The Green Cross Corporation, priority 1978, dated 1981)

Legend:
urokinase [1] = assay: Effect of heat stabilizers on residual urokinase activity after heat treatment; format: physicochemical; conditions: for residual urokinase activity in the presence of heat stabilizer: after heat treatment, concentrations of Table 2
urokinase [2] = assay: Stability of urokinase in heat treatment (60° C., 10 hours), dependence on pH; format: physicochemical
Procedure: Dependence of the stability of urokinase in heat treatment on pH:
A phosphate buffer solution was added in various concentrations to an aqueous urokinase solution [specific activity, 15,000 IU/mg; protein concentration, 0.02% (W/V)] to prepare samples of urokinase solutions having pH of 4, 5, 6, 7, 8, 9 and 10. Each sample was heated at 60° C. for 10 hours and the residual activity was compared. After the heat treatment, the heat stabilizer was removed by dialysis and the urokinase activity was assayed to calculate the ratio of residual activity by taking the specific activity before heating as 100%.

urokinase [3] = assay: Residual urokinase activity and molecular weight distribution after dialysis against outer liquids of different pH; format: physicochemical, human urine; conditions: 40 hours at 4° C.
Procedure: The interrelationship between pH and the ratio of residual urokinase activity as well as the molecular weight distribution:
The resulting solution was dialyzed for 40 hours at 4° C. against an outer liquid of water, a 1 M sodium acetate buffer solution of pH 3.0, 4.0, 5.0, 6.0, 7.0, 8.0, 9.0, 11.0 or 12.0 or a 1/15 M phosphate buffer solution, while renewing the outer liquid at a time interval of 8 hours. After completion of the dialysis, the ratio of residual activity was assayed and molecular weight distribution was roughly evaluated by the molecular sieving by means of gel filtration technique.

[4] = heat stabilizer concentration 5%
[5] = heat stabilizer concentration 10%
[6] = heat stabilizer concentration 15%
[7] = heat stabilizer concentration 0.1 M

## [Cl-].[Na+] [Sodium chloride, sodium chloride]
Urokinase [1]
  residual urokinase activity in the presence of heat stabilizer: 71-75%
Urokinase [1]; heat stabilizer concentration 0.15 M
  Ratio of residual urokinase activity: 71%
Urokinase [1]; heat stabilizer concentration 0.3 M
  Ratio of residual urokinase activity: 75%

## OC[C@H]1O[C@@](CO)(O[C@H]2O[C@H](CO)[C@@H](O)[C@H](O)[C@H]2O)[C@@H](O)[C@@H]1O [Sucrose, sucrose]
Urokinase [1]
  residual urokinase activity in the presence of heat stabilizer: 75-78%
Urokinase [1]; [4]
  Ratio of residual urokinase activity: 75%
Urokinase [1]; [5]
  Ratio of residual urokinase activity: 77%
Urokinase [1]; [6]
  Ratio of residual urokinase activity: 78%

## OC[C@@H](O)[C@@H](O)[C@H](O)[C@H](O)CO [Mannit, mannitol]
Urokinase [1]
  residual urokinase activity in the presence of heat stabilizer: 78%
Urokinase [1]; [4]
  Ratio of residual urokinase activity: 73%
Urokinase [1]; [5]
  Ratio of residual urokinase activity: 73%

## urokinase
Urokinase [1]; heat stabilizer absent, pH 6.8 with 0.1 M phosphate buffer
  Ratio of residual urokinase activity: 65%
Urokinase [1]; no phosphate buffer, pH not adjusted
  Ratio of residual urokinase activity: 0%
Urokinase [2]; pH 7, phosphate buffer
  ratio of residual activity after heat treatment: 52%
Urokinase [2]; pH 8, phosphate buffer
  ratio of residual activity after heat treatment: 65%
Urokinase [2]; pH 9, phosphate buffer
  ratio of residual activity after heat treatment: 50%
Urokinase [3]; Run 1, pH of outer liquid 3
  Activity after dialysis: 6,324 IU
  Ratio of residual activity: 65
Urokinase [3]; Run 2, pH of outer liquid 4
  Activity after dialysis: 6,314 IU
  Ratio of residual activity: 64
Urokinase [3]; Run 3, pH of outer liquid 5
  Activity after dialysis: 6,426 IU
  Ratio of residual activity: 66
Urokinase [3]; Run 4, pH of outer liquid 6
  Activity after dialysis: 7,252 IU
  Ratio of residual activity: 74
Urokinase [3]; Run 5, pH of outer liquid 7
  Activity after dialysis: 8,296 IU
  Ratio of residual activity: 85
Urokinase [3]; Run 6, pH of outer liquid 8
  Activity after dialysis: 10,290 IU
  Ratio of residual activity: 105
Urokinase [3]; Run 7, pH of outer liquid 9
  Activity after dialysis: 9,672 IU
  Ratio of residual activity: 99
Urokinase [3]; Run 8, pH of outer liquid 11
  Activity after dialysis: 9,016 IU
  Ratio of residual activity: 92
Urokinase [3]; Run 9, pH of outer liquid 12
  Activity after dialysis: 8,722 IU
  Ratio of residual activity: 89
Urokinase [3]; outer liquid H2O
  Activity after dialysis: 8,514 IU
  Ratio of residual activity: 86

## N=C(N)NCCC[C@H](N)C(=O)O [Arginine, arginine]
Urokinase [1]
  residual urokinase activity in the presence of heat stabilizer: 79%
Urokinase [1]; [7]
  Ratio of residual urokinase activity: 79%

## O=C(O)CN(CCN(CC(=O)O)CC(=O)O)CC(=O)O [EDTA]
Urokinase [1]; heat stabilizer concentration 0.1%
  Ratio of residual urokinase activity: 23%

## Gelatin
Urokinase [1]
  residual urokinase activity in the presence of heat stabilizer: 88-100%
Urokinase [1]; heat stabilizer concentration 0.5%
  Ratio of residual urokinase activity: 88%
Urokinase [1]; heat stabilizer concentration 1.0%
  Ratio of residual urokinase activity: 91%
Urokinase [1]; heat stabilizer concentration 3.0%
  Ratio of residual urokinase activity: 89%

## NCC(=O)O [Glycine, glycine]
Urokinase [1]
  residual urokinase activity in the presence of heat stabilizer: 65-75%
Urokinase [1]; [4]
  Ratio of residual urokinase activity: 65%
Urokinase [1]; [5]
  Ratio of residual urokinase activity: 70%
Urokinase [1]; [6]
  Ratio of residual urokinase activity: 75%

## NCCCC[C@H](N)C(=O)O [Lysine, lysine]
Urokinase [1]
  residual urokinase activity in the presence of heat stabilizer: 78%
Urokinase [1]; [7]
  Ratio of residual urokinase activity: 78%
